Measured values taken from patent US20220267420A1 (Memorial Sloan Kettering, published 2022).

B1: Foxp3-#32 mAb, mouse IgG1 form (antibody, V domains shown)
VH: EVQLVESGGGVVQPGRSLRLSCAASGFTFNNHAMHWVRQAPGKGLEWVAVISFDGDDKFYADSVKGRFTISRDNSRNTLFLQMNNLRPEDTAVYYCSRDPYHFASGSYSYFDYWGQGTLVTVSS
VL: QSVLTQPPSVSVAPGKTARITCGGNNIGSKSVHWYQQKPGQAPVLVIYYDSDRPSGIPERFSGSNSGNTATLTISRVEAGDEADYYCQVWDSSSDHYVFGTGTKVTVL
modifications: APC-conjugated in some stainings; the letters do not carry the dye.
notes: Mouse IgG1 form of the TCR-mimic antibody, used for flow cytometry and APC-conjugated in some stainings; Where the text says only 'Foxp3-#32 mAb' in the Treg and cell line stainings, the methods and legends name the mouse IgG1 form; also called mAb Foxp3-#32; mAb-Foxp3-#32
B2: Foxp3-#32 bispecific mAb (bispecific antibody)
chain: QSVLTQPPSVSVAPGKTARITCGGNNIGSKSVHWYQQKPGQAPVLVIYYDSDRPSGIPERFSGSNSGNTATLTISRVEAGDEADYYCQVWDSSSDHYVFGTGTKVTVLGSRGGGGSGGGGSGGGGSLEMAEVQLVESGGGVVQPGRSLRLSCAASGFTFNNHAMHWVRQAPGKGLEWVAVISFDGDDKFYADSVKGRFTISRDNSRNTLFLQMNNLRPEDTAVYYCSRDPYHFASGSYSYFDYWGQGTLVTVSSTSGGGGSDVQLVQSGAEVKKPGASVKVSCKASGYTFTRYTMHWVRQAPGQGLEWIGYINPSRGYTNYADSVKGRFTITTDKSTSTAYMELSSLRSEDTATYYCARYYDDHYCLDYWGQGTTVTVSSGEGTSTGSGGSGGSGGADDIVLTQSPATLSLSPGERATLSCRASQSVSYMNWYQQKPGKAPKRWIYDTSKVASGVPARFSGSGSGTDYSLTINSLEAEDAATYYCQQWSSNPLTFGGGTKVEIKHHHHHH
notes: Bispecific T cell engager format, made in CHO cells and purified through its His tag; also called FoxP3-#32 BsAb; Foxp3-bispecific mAb

Assays:
[1] = biological target: T1, CD3 on the Jurkat T cell line (human, UniProt P07766 23-207); assay: flow cytometry on Jurkat cells (HLA-A2 negative)
T1 construct: whole, on cells; The result sentence says only 'CD3'; the epsilon chain comes from the description of the construct; also called human CD3 epsilon
Protocol: Binding of the indicated bispecific mAb constructs to Foxp3+/HLA-A2+T lymphoma cell line MAC-2A and control cell line Jurkat. Since the bispecific mAb constructs were myc-tagged, the binding was tested by staining the cells with the bispecific mAbs, followed by a secondary mAb, mouse anti-myc conjugated to FITC. […] Binding strength is shown by median fluorescent intensity.

[2] = biological target: T2, HLA-A*02:01 on T2 cells without added peptide (human); assay: flow cytometry; T2 cells without peptide, stained with Foxp3-#32 bispecific mAb
T2 construct: Also serves as the HLA partner in the T2 stabilization assay of the TLI analog peptides; also called T2 cells alone; HLA-A*02 molecule
Description: (§1) TLI peptide was substituted with alanine at position 1, 2, 3, 4, 5, 7, 8 and 9, or with glycine at position 10. Position 6 was already alanine and it was left intact.

[3] = biological target: T3, A5: … on HLA-A2 of T2 cells (human, UniProt A*02:01); assay: flow cytometry; T2 cells pulsed with the peptide at 50 ug/ml, stained with Foxp3-#32 bispecific mAb
T3 construct: on T2 cells; W5A; also called A5 analog of the Foxp3-TLI peptide/HLA-A*02:01
Description: as §1

[4] = biological target: T4, A7: … on HLA-A2 of T2 cells (human, UniProt A*02:01); assay: as above
T4 construct: on T2 cells; I7A; also called A7 analog of the Foxp3-TLI peptide/HLA-A*02:01
Description: as §1

[5] = biological target: T5, A8: … on HLA-A2 of T2 cells (human, UniProt A*02:01); assay: as above
T5 construct: on T2 cells; L8A; also called A8 analog of the Foxp3-TLI peptide/HLA-A*02:01
Description: as §1

[6] = biological target: T6, A9: … on HLA-A2 of T2 cells (human, UniProt A*02:01); assay: as above
T6 construct: on T2 cells; E9A; also called A9 analog of the Foxp3-TLI peptide/HLA-A*02:01
Description: as §1

[7] = biological target: T7, G10: … on HLA-A2 of T2 cells (human, UniProt A*02:01); assay: as above
T7 construct: on T2 cells; A10G; also called G10 analog of the Foxp3-TLI peptide/HLA-A*02:01
Description: as §1

[8] = biological target: T8, A1: … on HLA-A2 of T2 cells (human, UniProt A*02:01); assay: as above
T8 construct: on T2 cells; T1A; also called A1 analog of the Foxp3-TLI peptide/HLA-A*02:01
Description: as §1

[9] = biological target: T9, A2: … on HLA-A2 of T2 cells (human, UniProt A*02:01); assay: as above
T9 construct: on T2 cells; L2A; also called A2 analog of the Foxp3-TLI peptide/HLA-A*02:01
Description: as §1

[10] = biological target: T10, A3: … on HLA-A2 of T2 cells (human, UniProt A*02:01); assay: as above
T10 construct: on T2 cells; I3A; also called A3 analog of the Foxp3-TLI peptide/HLA-A*02:01
Description: as §1

[11] = biological target: T11, A4: … on HLA-A2 of T2 cells (human, UniProt A*02:01); assay: as above
T11 construct: on T2 cells; R4A; also called A4 analog of the Foxp3-TLI peptide/HLA-A*02:01
Description: as §1

T1 sequence (P07766 23-207): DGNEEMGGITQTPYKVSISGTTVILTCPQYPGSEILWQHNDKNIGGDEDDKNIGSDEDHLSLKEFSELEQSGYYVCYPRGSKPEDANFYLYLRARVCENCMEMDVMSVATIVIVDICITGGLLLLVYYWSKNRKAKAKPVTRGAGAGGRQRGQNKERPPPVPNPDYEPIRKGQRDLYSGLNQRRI

| binding result [1] | binding result [2] | Median:PE-A [3] | Median:PE-A [4] | Median:PE-A [5] | Median:PE-A [6] | Median:PE-A [7] | Median:PE-A [8] | Median:PE-A [9] | Median:PE-A [10] | Median:PE-A [11] | Binder |
| --- | --- | --- | --- | --- | --- | --- | --- | --- | --- | --- | --- |
| no binding (tested: 1 ug/ml) | – | – | – | – | – | – | – | – | – | – | B1 |
| – | no binding | 861 | 3470 | 122 | 117 | 214 | 5620 | 603 | 5510 | 4450 | B2 |
